Tests used:
[1] = biological target: amyloid β monomers (length not stated) (UniProt P05067); test: assay not stated
[2] = biological target: amylospheroid 42 (Homo sapiens (Human)) (UniProt P05067); test: SPR (BIAcore 3000), amylospheroid coupled to CM5 chip, antibody in solution
[3] = biological target: amylospheroid 40 (Homo sapiens (Human)) (UniProt P05067); test: as above

Substance	reactivity with amyloid β monomers relative to reactivity with amylospheroid [1]	Kd [2]	Kd [3]
commercialized N-terminal antibodies 82E1 (IBL) (antibody)	2 fold		
commercialized anti-amyloid β antibody 4G8		3.2 nM	1.7 nM
commercialized anti-amyloid β antibody 6E10			2.9 nM

From US8168188
